# Laboratory results taken from patent publication US20100111851A1 (UNIVERSITY OF TOKYO, published 2010).
# Numbering of substitutions follows the chain as printed.
# B1: anti-PRG-3 monoclonal antibody 4F1 (antibody, mouse IgG2b, kappa, V domains shown)
# VH: QVQLQQPGAELVKPGASVKLSCKASGYTFTSYWMNWVKQRPGRGLEWIGKIHPSDSETHYNQKFKSKATLTVDKSSSTAYIQLNSLTSEDSAVYYCTRGYNNYLDYWGQGTTLTVSS
# VL: DIVLTQSPASLAVSLGQSVTISCRASESVEYYGTSLMQWYQQKPGQPPKLLIYGASNVESGVPARFSGSGSWTDFSLNIHPVEEDDIAIYFCQQSRKVPSTFGGGTKLEIKR
# notes: also called MR4F1
# B2: anti-PRG-3 monoclonal antibody 4F12 (antibody, mouse IgG2a, kappa, V domains shown)
# VH: B1 VH with N84S, T97A, N101S
# VL: B1 VL with S18R, W72G, I89M
# notes: Tested as hybridoma culture supernatant and as protein G purified antibody; also called MR4F12
# Assays:
# [1] = biological target: T1, human PRG-3 (without tag) on cells (human, UniProt Q8TBJ4 1-325); test: flow cytometry, mixture of the two antibodies on Ba/F3 cells transfected with pMCN-PRG-3
# T1 construct: also called PRG-3 protein; PRG-3/BaF3
# T1 sequence: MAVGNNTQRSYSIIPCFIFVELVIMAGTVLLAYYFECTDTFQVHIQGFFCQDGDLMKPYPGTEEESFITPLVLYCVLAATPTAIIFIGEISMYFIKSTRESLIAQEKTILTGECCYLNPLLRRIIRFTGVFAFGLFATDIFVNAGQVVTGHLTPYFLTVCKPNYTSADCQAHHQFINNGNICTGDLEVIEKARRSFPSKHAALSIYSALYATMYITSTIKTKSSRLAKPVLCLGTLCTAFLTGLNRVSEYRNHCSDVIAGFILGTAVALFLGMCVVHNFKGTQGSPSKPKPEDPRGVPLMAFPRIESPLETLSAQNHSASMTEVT
# Method: A Ba/F3 cell transformant line was established by gene transfer of the pMCN-PRG-3 expression vector constructed in example 2 into Ba/F3 cells, which is a murine pro B cell line, by electroporation under conditions of 0.33 kV and 950 μF. The Ba/F3 cells are IL-3 dependent cells, and they were cultured in RPMI-1640/10% FBS/penicillin-streptomycin containing 1 ng/mL IL-3. The cells that underwent gene transfer were selected by RPMI-1640/10% FBS/penicillin-streptomycin containing IL-3 and 500 μg/mL Geneticin® (Invitrogen). Cells expressing PRG-3 from the Geneticin®-resistant lines were selected by flow cytometry. […] Lines O-A5, O-D3, and O-F5 were established as Ba/F3 cell lines expressing PRG-3 (FIG. 6). Additionally, line O-F5 was cloned by the limiting dilution method and the OF5-G8 line with a high level of expression was also obtained.
# [2] = biological target: T2, whole human PRG-3 with a C-terminal V5 tag, inducibly expressed on PRG-3/293T-Rex cells (human, UniProt Q8TBJ4 1-325); test: flow cytometry, hybridoma supernatant on PRG-3-induced against non-induced 293 cells
# T2 construct: Membrane protein with 6 transmembrane regions; also called PRG-3/293 cells; PRG3+/293 cells; not shown: V5 tag inserted at the C-terminus
# T2 sequence: T1 sequence
# Method: The cell line expressing human PRG-3 suspended in FACS buffer (2% FBS/PBS) was diluted to 1×10⁶ cells/mL using FACS buffer, and aliquoted at 50 μL/well into a Falcon 353910 round-bottom 96-well plate. Hybridoma culture supernatant diluted to a suitable concentration was added to the wells containing the cells and reacted for 60 min on ice. Next, the cells were rinsed once with FACS buffer. Goat F(ab′)₂ fragment anti-mouse IgG (H+L)-FITC (Beckman Coulter) was added to the wells containing the cells as a secondary antibody, and reacted for 30 min on ice. The supernatant was removed by centrifugation after the reaction, and the cells suspended in 100 μL of FACS buffer were subjected to flow cytometry. A FACS Calibur (Becton Dickinson) was used for the flow cytometry. A gate for the viable cell population was established with a forward scatter-side scatter dot blot, an FL1 histogram was made of the cells contained in the population, and binding activity thereof was evaluated.
Binder,binding result [1],binding result [2]
B1,binds,binds
B2,binds,binds
